Experimental data taken from patent US6541002 (THOMAS JEFFERSON UNIVERSITY, dated 2003).

Target: T1, Vpr-Gal4DB chimeric protein (HIV-1, UniProt P04386 1-147; P12520 1-96)
T1 construct: also called Vpr-Gal4BD
Experiment: yeast two-hybrid, growth on histidine-deficient medium

B1: wild type Gal4AD (other)
chain: ANFNQSGNIADSSLSFTFTNSSNGPNLITTQTNSQALSQPIASSNVHDNFMNNEITASKIDDGNNSKPLSPGWTDQTAYNAFGITTGMFNTTTMDDVYNYLFDDEDTPPNPKKE
- binding result: no binding
